Common to all, as to test: purified protein
Conditions in all cases: 25 mM Tris-HCl pH 7.4, 37 °C, 0.05 μM enzyme, no added metal mentioned

Substrate in data set [1]: CC(C)C[C@H](N)C(=O)Nc1ccc([N+](=O)[O-])cc1
Substrate in data set [2]: C[C@H](N)C(=O)Nc1ccc([N+](=O)[O-])cc1
Substrate in data set [3]: N=C(N)NCCC[C@H](N)C(=O)Nc1ccc([N+](=O)[O-])cc1
Substrate in data set [4]: NCCCC[C@H](N)C(=O)Nc1ccc([N+](=O)[O-])cc1
Substrate in data set [5]: N[C@@H](Cc1ccccc1)C(=O)Nc1ccc([N+](=O)[O-])cc1

The record followed here is article PMC7023490, “An M29 Aminopeptidase from Listeria Monocytogenes Contributes to In Vitro Bacterial Growth but not to Intracellular Infection” (Microorganisms, 2020).

A word on the Km: it is the substrate concentration at which the rate is half of its maximum.

B1: LmAmpII (Listeria monocytogenes EGD-e) (protein)
chain: MTVFSEKLEKYAELIVKVGVNVQPEQKVVIMAPVDAAPLVRLISKYAFEVGAEDVIMDWRDEELGALRYKNAPLRVFESAPVHRVAEKTELAKEGACFISITSEDPDLLNGVDSNKIATFQKTMGGAMSEFRELMQANVVSWTVVAAASQGWAAKVFPDLTPAEQMETLWEAIFETTRINTENPVETWKNHDQTLAAKAESLNEKQFTSLHYTAPGTDLTIGLPKNHLWVGAGSKNKKGHEFMANMPTEEVFCCADKLKVEGYVSSTKPLSYAGNIIDDFKITFEKGRIVGVEAASGEEILKDLIATDEGSHYLGEVALVPDPSPISQSGILFYNTLFDENASNHLAIGSAYAFNVKGGEEMSREELEAAGVNNSLTHVDFMIGSSEMDIDGVTESGEVVPVFRKGDWAF
In the case of B1, the Km in “purified protein [1]” came to 95.62 µM; in the data set “purified protein [2]” it was 340 µM; in the data set “purified protein [3]”, 24.94 µM; in “purified protein [4]”, 165.6 µM; in “purified protein [5]”, 399.6 µM.
